Reference: the supplement of paper PMC10126150
± gives the standard deviation of the averaged measurements.

These sequences were tested on ATP (assay: switch fluorescence ratio, 500 uM ATP over buffer (Cy3 cluster intensity, sum of 5 cycles each) (fold (ratio)); higher = stronger signal-on switching upon ATP binding; sequences stand for … in TCGTCGGCAGCGTCAGATGTGTATAAGAGACAGTTTTTTTTTTTTTTTTTTTTTTTTT…TC). Conditions: aptamer strand: ATP DNA aptamer (quencher-CACCTGGGGGAGTATTGCGGAGGAAGG + anchor), 100 nM annealed; ATP concentration: 500 uM.
Method in brief: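 Switching-strand clusters labelled with Cy3 on a modified Illumina MiSeq flow-cell were annealed to 100 nM quencher-labelled ATP aptamer, imaged in selection buffer, and re-imaged after 15 min with 500 uM ATP at 22 °C. This was done over five cycles with NaOH stripping and re-annealing in between. The fluorescence ratio is summed target-cycle over summed buffer-cycle Cy3 intensity per cluster, averaged per switch-domain sequence, excluding clusters outside 100-1000 RFU.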
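Note: ATP exposure 15 min at 22 °C before imaging.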

Row | Sequence | switch fluorescence ratio
1 | GACCGAGGGG | 0.989 ± 0.026
2 | AAAAATGCTT | 1.02 ± 0.066
3 | TGTTTATTTG | 0.965 ± 0.017
4 | CGATATCTAC | 1.06 ± 0.016
5 | AAGATTGCTT | 0.9874 ± 0.0032
6 | ATTATGCCTG | 1.06 ± 0.044
7 | TAGTAATTGA | 1 ± 0.02
8 | TGAAGTAAGC | 1.09 ± 0.12
9 | CCCTAATACG | 1.76 ± 0.044
10 | GGGCCCGGCA | 0.9814 ± 0.0049
11 | CGATGTGTGG | 0.986 ± 0.015
12 | CTGGGCAGAG | 1.02 ± 0.043
13 | TGAAAGCGCC | 1.07 ± 0.03
14 | TGTATGAACT | 0.98027 ± 3.7e-05
15 | CCCAGCTTGT | 1.035 ± 0.0031
16 | AGATATGGTT | 0.994 ± 0.048
17 | GCACGTGGTC | 1.04 ± 0.019
18 | CCTGGCAGAG | 1.22 ± 0.048
19 | TAGTTAGGGT | 0.9959 ± 0.0093
20 | GGTTAAGTGT | 1.01 ± 0.021
21 | TACGGGGGGG | 1.07 ± 0.074
22 | ACAAGGGCAT | 1.03 ± 0.025
23 | AGAAAAAAGG | 1.23 ± 0.42
24 | GGGAGGAGGA | 0.974 ± 0.026
25 | GGTATGTTAA | 0.98 ± 0.014

Row | Sequence | switch fluorescence ratio
26 | CCGGCGGGAG | 1.099 ± 0.0064
27 | GTGTTATGCA | 1.01 ± 0.021
28 | AGCTATGTTT | 0.979 ± 0.04
29 | ACTTAAAAGG | 1.0122 ± 0.00061
30 | GCGGCTGTTA | 1.01 ± 0.013
31 | TGCTGGTCTG | 1.02 ± 0.047
32 | TTTGTATTGG | 0.998 ± 0.035
33 | CGGTTGACGG | 0.9494 ± 0.0017
34 | GGTCCTGTTT | 0.994 ± 0.02
35 | GATCGATTG | 1.05 ± 0.051
36 | ATGAGGGTAG | 1.02 ± 0.034
37 | GAGGCTCGGA | 0.982 ± 0.029
38 | GGACGTCTGA | 1.02 ± 0.041
39 | TAAGATGACG | 1.13 ± 0.05
40 | TTATCATCTT | 1.01 ± 0.032
41 | TTGGTTGAGG | 0.974 ± 0.02
42 | AGGCAGGGAT | 1.01 ± 0.057
43 | GGGAAAAGGT | 1.04 ± 0.021
44 | ATAAAAAAGG | 1.01 ± 0.017
45 | TTCTTTCGCG | 0.9467 ± 0.0023
46 | AGTAGAGTTT | 0.987 ± 0.013
47 | CCTGTGTAAT | 3.18 ± 0.053
48 | GCCCGGGGTA | 1.09 ± 0.12
49 | TTTGACTTCA | 1.03 ± 0.018
50 | AAAATACTAT | 1.02 ± 0.026

Row | Sequence | switch fluorescence ratio
51 | GTAGGGGGTT | 0.9951 ± 0.0041
52 | ATTATGTTCT | 1.01 ± 0.013
53 | TTGGTAAAGT | 1.03 ± 0.071
54 | AGCGAGGTCT | 0.977 ± 0.027
55 | CCTGGAGCGG | 1.19 ± 0.037
56 | GATAGTTGTA | 1.01 ± 0.028
57 | TAATTAGTTT | 0.982 ± 0.015
58 | GGGGACTGGG | 1 ± 0.058
59 | CGGGATGTTA | 0.996 ± 0.016
60 | GATGCCGTAG | 0.9997 ± 0.0036
61 | CGCGTTTTTG | 1.01 ± 0.014
62 | TTTACGGCTT | 1.05 ± 0.078
63 | CTCGTTGCTT | 1.03 ± 0.037
64 | ATTTTTACCT | 1.08 ± 0.19
65 | TAGCGAATAG | 1.19 ± 0.043
66 | GGGTCGATGT | 1.02 ± 0.056
67 | ATTTTATATT | 1.02 ± 0.032
68 | CAGGATAGGC | 1.003 ± 0.0044
69 | GGGGGAGTTA | 0.989 ± 0.026
70 | CTAGGGTTAT | 1.006 ± 0.0025
71 | CTTCATGCTT | 1.02 ± 0.048
72 | GCTCGTAGTT | 1.01 ± 0.046
73 | GATCGGGAAC | 1.06 ± 0.031
74 | TGTGAGGCTA | 1.03 ± 0.012
75 | GGGAGAGAAC | 0.992 ± 0.012

Row | Sequence | switch fluorescence ratio
76 | TGTATATTTT | 0.98 ± 0.021
77 | TCAAATTAGC | 0.986 ± 0.023
78 | ATCATGTTAT | 0.986 ± 0.011
79 | CGGGGTTGCA | 0.978 ± 0.022
80 | CGGGGATCCT | 1.05 ± 0.032
81 | TTATAGATGG | 0.971 ± 0.077
82 | TATAGGGAGT | 1.01 ± 0.014
83 | AAACTTAGCA | 1.02 ± 0.012
84 | TGGGTAACTT | 1.1 ± 0.18
85 | ATGGCGTAGT | 0.975 ± 0.036
86 | TTGTTAATGA | 0.979 ± 0.046
87 | AAGTTTGCGT | 0.993 ± 0.022
88 | TTTTGACATT | 1.05 ± 0.032
89 | AATGTTTAAA | 0.9764 ± 0.0016
90 | TTGTTGTGGG | 0.986 ± 0.024
91 | TATTTTTTTC | 1 ± 0.018
92 | ATAAATGGGT | 0.9945 ± 0.0025
93 | TACGGGACGG | 1.07 ± 0.023
94 | AACGTTTTCC | 1.23 ± 0.1
95 | TCGGATGTGG | 1.01 ± 0.056
96 | CGGTTTTAGC | 0.968 ± 0.042
97 | GGATGTATCT | 0.995 ± 0.012
98 | GCGTTTTATT | 0.976 ± 0.017
99 | ATTGGGTCGT | 0.992 ± 0.021
100 | TTATAATGCC | 0.997 ± 0.078

Row | Sequence | switch fluorescence ratio
101 | CAAGGGTCGG | 0.996 ± 0.033
102 | AGGTTAGGCT | 0.989 ± 0.014
103 | CCCGGGTTAG | 1.08 ± 0.028
104 | AACGTGGGGC | 1.01 ± 0.05
105 | TGCAACCTCA | 1.09 ± 0.043
106 | TGAGCTGGCT | 0.989 ± 0.021
107 | AATGTGGCGC | 0.9643 ± 0.0043
108 | TGGTCTTCCA | 1.04 ± 0.013
109 | GGTTACTGGT | 1.01 ± 0.03
110 | GGGGTTCTCG | 1.001 ± 0.0031
111 | TTTTAAGGTA | 0.996 ± 0.026
112 | GTGTGGGGCC | 0.973 ± 0.012
113 | GCTGATGATA | 0.967 ± 0.026
114 | CCGAACACCT | 1.219 ± 0.0037
115 | GAGCGAGGGG | 0.9836 ± 0.0074
116 | GGGGTGCACG | 0.988 ± 0.051
117 | CAGGCCGGAG | 1.01 ± 0.022
118 | ATTGTAGTGT | 1.01 ± 0.025
119 | TAGAGGGGAA | 1.024 ± 0.0034
120 | ATTGGGCTGC | 0.977 ± 0.01
121 | CGTGAAAGTA | 0.996 ± 0.049
122 | GTATAATTTG | 0.9933 ± 0.0019
123 | CAGTCGCGTG | 0.993 ± 0.018
124 | TGGCAATGAA | 1.28 ± 0.35
125 | TATCCGAGGT | 1.16 ± 0.26

Row | Sequence | switch fluorescence ratio
126 | TAAAATTATG | 0.974 ± 0.019
127 | TTAGGAAGTG | 0.999 ± 0.017
128 | AACCGCCCTT | 1.27 ± 0.15
129 | CGGGATGGTT | 0.97 ± 0.11
130 | ATTTTTGGCA | 0.995 ± 0.033
131 | TTCAGGGCTT | 0.986 ± 0.036
132 | CCGTTATCTC | 2.81 ± 1
133 | TTTATTTACT | 1.011 ± 0.0036
134 | GGGCGACGGC | 1.04 ± 0.047
135 | GTTCATCCAG | 1.05 ± 0.017
136 | TTTATAAAGA | 1.02 ± 0.059
137 | AAGTGAAACA | 1.03 ± 0.037
138 | CCTAGGGGAA | 1.02 ± 0.022
139 | ACCGGTAAAT | 1.01 ± 0.037
140 | GTTGTATGGA | 0.995 ± 0.034
141 | CATGGAGTAC | 1.02 ± 0.032
142 | AGGAAGGCA | 0.975 ± 0.05
143 | TCGAGAGGGA | 1 ± 0.047
144 | ATGTCAGATT | 1.01 ± 0.037
145 | CAGGCTGGGC | 0.9862 ± 0.008
146 | AAAGTGTTTC | 0.986 ± 0.029
147 | GATTTGGTCA | 0.9976 ± 0.0034
148 | CGTAATAGTC | 1.81 ± 0.15
149 | TTTTGGAAGT | 0.993 ± 0.042
150 | GCCATATACA | 1.035 ± 0.01

Row | Sequence | switch fluorescence ratio
151 | AATGGTGGTC | 0.998 ± 0.012
152 | ATAACGGAGG | 0.9773 ± 0.0088
153 | TGTTTTTCTA | 1 ± 0.044
154 | TTCGCGGTCT | 1.11 ± 0.13
155 | TATCGGCGAG | 1.02 ± 0.046
156 | AGAATGGTGA | 0.96 ± 0.061
157 | CGGAAAAAGG | 0.992 ± 0.034
158 | TCGGGGACGT | 1.062 ± 0.0057
159 | CAATGGAGGA | 1.011 ± 0.0058
160 | TCAGAAGGCT | 0.999 ± 0.065
161 | TTCCCGCGTA | 1.19 ± 0.13
162 | TCGGGTTTGT | 1.01 ± 0.011
163 | ACGTCGTAGG | 1.05 ± 0.016
164 | CTTAACATGC | 1.06 ± 0.049
165 | CGAATTCCGG | 1.01 ± 0.084
166 | AGTCTGCTGT | 0.984 ± 0.037
167 | AATGGTAATA | 0.986 ± 0.025
168 | AATAGGTCAT | 1.02 ± 0.028
169 | GGGGTACCGG | 1.02 ± 0.032
170 | ATGCATAGGC | 0.983 ± 0.011
171 | ACAGTGCTGC | 0.978 ± 0.012
172 | TGGTGGGGAG | 1.01 ± 0.045
173 | GGGGTAGGGT | 0.997 ± 0.032
174 | GACACTTAGG | 1.05 ± 0.017
175 | AATTGGGCCT | 1.034 ± 0.003

Row | Sequence | switch fluorescence ratio
176 | TTGGGATGAG | 1 ± 0.019
177 | AGTATTTTTG | 1.01 ± 0.032
178 | TTTGGGGGGA | 1.05 ± 0.21
179 | ATGCTGTTGC | 0.9631 ± 0.0065
180 | GGTCAGTGTC | 0.981 ± 0.052
181 | AGACTAGTTT | 1.02 ± 0.015
182 | TGTGGCAATT | 1.07 ± 0.037
183 | TTGAAATTTT | 1.001 ± 0.0077
184 | CCATGTTGAT | 1 ± 0.039
185 | CTAAGGGGGT | 0.9503 ± 0.0032
186 | AACCCGGGGT | 0.99 ± 0.045
187 | GATTTTGTAA | 1.012 ± 0.004
188 | AGACGGGTGG | 0.9763 ± 0.0052
189 | ATTGCAGATC | 1.05 ± 0.058
190 | GTTGGTGTGG | 0.9975 ± 0.0086
191 | CAGAGAGCGT | 1.008 ± 0.0068
192 | TCCATTTGGA | 1.02 ± 0.052
193 | TCTTGTATAG | 0.966 ± 0.032
194 | GTTTTTCCAT | 1 ± 0.024
195 | TTTTAAGTCT | 1.02 ± 0.0036
196 | AATGCGAGAA | 0.973 ± 0.024
197 | CACGGGGTTG | 0.982 ± 0.069
198 | TTTTCCAATG | 1.02 ± 0.017
199 | CGAGTCTCGT | 1.03 ± 0.04
200 | TAGGTCGATA | 1 ± 0.023
